For 1 substance, cGMP in HAEC with 10^-6 M CNP in the presence of the NPR-B antibody (1:100) and cGMP in HAEC with 10^-6 M CNP, no antibody results are on record in US20090054337A1.

The target in this test is natriuretic peptide receptor-B (NPR-B) on human aortic endothelial cells (human) (UniProt P20594). In words: cell-based or functional assay.
UniProt P20594, sequence (P20594 23-1047): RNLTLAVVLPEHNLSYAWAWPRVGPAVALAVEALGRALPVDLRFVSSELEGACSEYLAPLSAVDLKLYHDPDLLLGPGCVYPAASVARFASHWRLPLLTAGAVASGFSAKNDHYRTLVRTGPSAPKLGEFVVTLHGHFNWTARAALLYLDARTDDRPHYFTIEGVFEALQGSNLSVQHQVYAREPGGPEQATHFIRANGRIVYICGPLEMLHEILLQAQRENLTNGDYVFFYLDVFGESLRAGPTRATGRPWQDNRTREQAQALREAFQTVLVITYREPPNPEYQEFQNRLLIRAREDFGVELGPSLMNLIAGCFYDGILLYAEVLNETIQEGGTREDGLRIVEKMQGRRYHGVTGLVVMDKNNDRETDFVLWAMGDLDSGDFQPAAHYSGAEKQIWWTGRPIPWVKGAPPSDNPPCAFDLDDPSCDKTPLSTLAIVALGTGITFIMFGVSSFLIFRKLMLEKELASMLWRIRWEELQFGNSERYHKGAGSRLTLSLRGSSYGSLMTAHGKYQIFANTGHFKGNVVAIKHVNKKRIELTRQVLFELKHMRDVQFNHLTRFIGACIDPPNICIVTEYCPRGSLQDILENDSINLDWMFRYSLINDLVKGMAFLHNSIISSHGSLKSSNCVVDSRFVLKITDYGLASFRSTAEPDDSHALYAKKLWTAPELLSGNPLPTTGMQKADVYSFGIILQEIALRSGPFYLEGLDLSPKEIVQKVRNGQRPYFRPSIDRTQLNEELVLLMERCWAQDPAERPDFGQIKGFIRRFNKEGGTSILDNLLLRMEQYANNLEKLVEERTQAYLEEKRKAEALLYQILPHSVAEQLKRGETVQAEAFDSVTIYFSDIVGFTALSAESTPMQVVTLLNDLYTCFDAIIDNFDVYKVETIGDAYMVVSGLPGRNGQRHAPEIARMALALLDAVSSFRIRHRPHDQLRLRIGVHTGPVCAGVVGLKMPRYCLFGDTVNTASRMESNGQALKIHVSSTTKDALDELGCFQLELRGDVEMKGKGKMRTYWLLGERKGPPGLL

Turning to “human CNP (from UniProt P23582 74-126) (peptide)”, the cGMP in HAEC with 10^-6 M CNP in the presence of the NPR-B antibody (1:100) stood at 0.08 pmol/mL and the cGMP in HAEC with 10^-6 M CNP, no antibody was determined as 0.17 pmol/mL.
